B1: SCNN1D (parent)
chain: IRVMVHGRNHTPFLGHHSFSVRPG
B2: C2CD2L (parent)
chain: LTLKVLRSSSCGDTELLGQATLPV
B3: CSNK1G1 (parent)
chain: GSLPWQGLKADTLKERYQKIGDTK

Variants of: B1
Experiment: protein stability index of a GFP-peptide fusion (GPS, HEK-293T) (PSI 1-6); higher = more stable
Details: c terminus: a fixed tail appended
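Further: lentivirally expressed fusions sorted by FACS into six bins by GFP to DsRed ratio, PSI derived from sequencing read proportions per bin multiplied by bin number.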

Protein stability index of substitutions, site by site:
L14: Q 2.67
P23: T 1.8; S 2.45; N 2.25; K 1.44; Q 1.64; W 1.89; A 1.32

Variants of: B2
Experiment: as above
Details: c terminus: a fixed tail appended

Protein stability index, by site and new letter:
P23: G 4.54; C 3.55; F 1.57; A 3.27
V24: E 1.54; N 1.92; R 3.59; F 2.7; D 1.64; G 2.02; P 2.41; M 4.58; A 2.59; K 1.85; Q 1.82; S 1.98; T 1.81; H 1.37
L22: H 1.54; I 2.36; E 1.74; T 1.75; V 2.75; Y 3.26; K 1.97; W 2.21; P 1.87; R 1.6; S 1.61; M 1.56; Q 1.28; G 1.75; N 2.32

Variants of: B3
Experiment: as above
Details: c terminus: a fixed tail appended

Protein stability index of substitutions, site by site:
W5: T 5.09; L 4.62; F 4.75; A 4.98; S 4.99; N 4.97; K 4.74; D 5.18; E 5.42; V 4.58; H 4.53; R 4.29; P 4.62; G 4.53; Q 4.38; M 4.61; C 4.7; Y 4.43; I 3.99
Q6: K 4.13; G 4.13; E 4.32; Y 2.89; D 4.48; S 3.98; N 3.92; R 3.96; V 4.33; M 4.07; A 3.7; L 3.77; P 4.57; W 2.74; H 4.62; T 4.24; F 3.25; C 3.4; I 3.94
L3: N 4.09; E 4.18; P 3.88; K 4.12; C 4.31; G 4.42; R 3.81; Q 4.63; H 4.58; V 4.37; Y 4.09; D 4.2; I 4.55; W 3.41; T 4.09; M 4.54; S 4.2; F 3.71; A 4.38
G7: A 4.39; E 4.31; I 3.52; F 2.42; C 3.4; K 3.75; N 4.64; D 4.33; P 4.38; M 3.85; H 3.72; L 3.44
G1: Q 4.03; C 3.34; E 4.44; L 3.89; I 3.52; F 2.73; D 4.35; A 4.05; N 4.13; H 4; Y 2.08; W 3.6; T 4.04; M 4.35; K 4.17; S 3.97; V 3.79; R 4.16; P 4.15
S2: A 4.14; I 3.47; C 3.22; G 3.69; L 4.17; Q 4.57; W 3.04; M 4.07; V 3.35; R 3.83; F 3.73; P 3.95; Y 4.01; E 4.6; D 4.53; N 4.11; T 4.21; H 3.16; K 4.37
P4: I 3.67; R 4.37; Q 4.3; N 3.95; H 4.17; F 2.84; V 4.09; C 3.42; W 3.09; D 4.37; S 4.49; G 4.02; T 4.08; M 4.55; Y 3.73; A 4.02; E 4.46; L 3.78; K 4.28

— the supplement of paper PMC10567573
